From patent US9120862 (AbbVie / Abbott, dated 2015)
Bridge positions count the residues as written; N and C are the ends. Ends that are not written are not given here.

B1: monoclonal antibody 3C10 (produced by hybridoma cell line ATCC deposit designation PTA-9638) (antibody, V domains shown)
VH: EVQLVESGGDLVKPGGSLKLSCAASGFTFSSYGMSWVRQTPDKRLEWVATISRGGSSTYYPDSVKGRFTISRDNAKNNLYLQMSSLKSEDTAMYYCASLNYGNFFDYWGQGTTLTVSS
VL: DVVMTQTPLSLPVSLGDQASISCRSSQSLVHSNGNTYLHWYLQKPGQSPKLLIYKVSNRFSGVPDRFSGSGSGTDFTLKISRVEAEDLGVYFCSQNRHVPPTFGGGTKLEIKR

Legend:
[1] = molecular target: B1; experiment: FCS competition: 2 nM Alexa488-PIVKA-II (13-27) premixed with 10 nM mAb 3C10, analog peptide added, overnight; D of the tracer (high D = tracer displaced)
[2] = molecular target: T1, Alexa-488 labeled PIVKA-II Gla domain peptide (13-27) (human, disulfide 5-10 (inferred); also: labelled with Alexa Fluor 488 TFP ester, site not given here); experiment: fluorescence quenching titration: BHQ-labelled mAb 3C10 titrated against 0.05 nM Alexa488 PIVKA-II peptide (13-27)
T1 construct: also called Alexa488-PIVKA-II (13-27); Alexa488-PIVKA-II peptide (13-27 cyc)
T1 peptide: LERECVEETCSYEEA

Apparent Diffusion Coefficient (D) [1] [um^2/sec] | EC50 (read off the curve) [2] [nM] | Binder
48 | – | LERECMEEKCSFEEA (disulfide 5-10 (inferred)) [13-27 Gla domain PIVKA IX peptide]
53 | – | LERECIEEICDFEEA (disulfide 5-10 (inferred)) [13-27 Gla domain PIVKA Protein C peptide]
50 | – | LERECIEELCNKEEA (disulfide 5-10 (inferred)) [13-27 Gla domain PIVKA Protein S peptide]
51 | – | LEKECYEEICVYEEA (disulfide 5-10 (inferred)) [13-27 Gla domain PIVKA Protein Z peptide]
49 | – | LERECKEEQCSFEEA (disulfide 5-10 (inferred)) [13-27 Gla domain PIVKA Factor VII peptide]
52 | – | LERECMEETCSYEEA (disulfide 5-10 (inferred)) [13-27 Gla domain PIVKA Factor X peptide]
– | ~0.1 | B1
